# Laboratory results published in the RNAGym collection of RNA variant scans (doi:10.1073/pnas.2313332121).
# B1: TPR t1 (parent)
# chain: GACCAAUCUGCCCUCAGAGCUCGAGAACAUCUUCGGAUGCAGAGGAGGCAGGCUUCGGUGGCGCGAUAGCGCCAACGUCCUCAACCUCCAAUGCAUCCCACCACAUGAUGAUGCCUGAAGAGCCUUGGUUUUUUG
# Variants of: B1
# Assay: polymerase ribozyme fitness, log enrichment relative to wild type (log ratio); higher = more active; in vitro selection for triplet polymerase activity
# Method in brief: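 For each subunit of a heterodimeric triplet polymerase ribozyme, a mutant library was built by PCR and transcribed, then taken through a single in vitro selection round in triplicate. Selection involved annealing to a biotinylated primer, the partner subunit and triplets, incubation frozen at −7 °C, gel excision of extended constructs, capture on streptavidin beads and RT-PCR. Genotypes were retained after Illumina sequencing of inputs and outputs only with ≥10 input reads and ≥1 read in each output. Fitness is defined as the logarithm of a genotype's enrichment relative to wild-type enrichment, using inverse-variance-weighted averages across replicates, with the logarithm taken to base 2.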
row,Variant,polymerase ribozyme fitness (log ratio)
1,U55C C72G,-0.713
2,U54C G58A U92C,-0.614
3,U54G C85G G113C A118C,-4.79
4,U54A G71C C89U U129A,-2.49
5,U54G G60A,-4.1
6,U55A C88A,0.08
7,U55A A66G C101G,-2.92
8,U54A U87A,-2.57
9,U55C G57A U106A G110U C123U,-3.04
10,U55A G69C U87G G93U,-1.37
11,U54G G69U,-0.782
12,U54G G69C,-6.2
13,U55C C56U U78C G93A C101A,-1.12
14,U54A U106A,-1.04
15,U54G U59C,-1.85
16,U54C C88U C94A C101U,-0.155
17,U54A C73A C79A G107C A119G,-6.96
18,U54A U81C A90G C123U,0.715
19,U54A G60A U78C C89U G120A U126A,-1.78
20,U55A C86G U130A,-0.641
21,U55C A111U A119C,-5.71
22,U55C A111U G117A,-6.33
23,U54A G61U U96C C99A,-5.82
24,U54C U87A,0.213

row,Variant,polymerase ribozyme fitness (log ratio)
1,U54G U87C C115G,-1.72
2,U54G G71A,-4.72
3,U54A U55A A74G,-0.235
4,U54G C82A C94G C124U,0.658
5,U54C G61C A75U,0.0964
6,U54A G71C A83C G120U,-0.105
7,U54G G120A,-0.587
8,U54A G63U C99U G117U,-5.72
9,U54A G71U C79U G93A C94U,-2.4
10,U55C C115G G122A,-1.84
11,U54G C97U,-0.558
12,U54C G61A U81A U96A,-1.36
13,U54C C82U A83C C115G G117A U129C,-4.19
14,U55A G69A C94A,-4.1
15,U54A C72A C73U A91C C115U,-4.35
16,U54A C98U U129G U133G,-3.2
17,U54G G113C U126C,-3.09
18,U54A G110A C115G,-4.1
19,U55C C56U U59C,-0.103
20,U54A C70G C115U,-5.02
21,U54A C70U C88G C89U C115A,-0.838
22,U54G C72G U129A,-2.34
23,U54A G61A,0.266
24,U54A G71U,-0.0584

row,Variant,polymerase ribozyme fitness (log ratio)
1,U54G G113U,-3.26
2,U54A C88G G135U,-1.43
3,U54C G57U C115G,-1.53
4,U54A C72G,-0.955
5,U55A C79A U125G U133G,-4.8
6,U54G U87C U92G,-2.64
7,U54G G93U A95C C101A G120A,-2.9
8,U55A G69U,0.503
9,U54C U59C C94U A111G G128A U131A,-3.64
10,U55A G77C C104A,-1.93
11,U54G U55G C73U C102G G110U G120C,-6.74
12,U54C C56A C89U,-0.439
13,U54C C97A,-5.83
14,U54C C73A A121U,2.33
15,U55C C64U,-0.472
16,U54A C72A C73U A91C C115U U129A,-4.31
17,U54G A68C C101A G113U,-7.46
18,U55C A83G C85U C124A,0.55
19,U55A U59C G135U,-1.36
20,U54C U109G,-5.15
21,U54G U59A C80U C123A U129C,-1.82
22,U55A C73U C85A C115G,-3.38
23,U55A C104A G113C G122U,-3.73
24,U54G C56A,-1.48

row,Variant,polymerase ribozyme fitness (log ratio)
1,U55A U81A,-0.637
2,U55C G60A C82A,-0.172
3,U55A G117A,-1.34
4,U54A C82U,-0.0762
5,U54G U78A G93U,-4.13
6,U54G C72U C97U,-0.381
7,U54G U55G C73A C102G G110U G120C,-7.7
8,U54A G110A,-1.52
9,U55C G61C C80A,-3.32
10,U54G A121G,1.62
11,U55C G57U A66C C123G,-0.734
12,U55A A74G C82G C123G,1.26
13,U55A C124G,1.88
14,U54A C104U C114G C115U,-5.34
15,U55A G63C C98U G113U,-4.52
16,U54C C70A C82A G128U,-5.17
17,U55A U112A,1.77
18,U54A C94U U109G,-5
19,U55A U81A G113A,-2.4
20,U55A G71C,-1.29
21,U54A G63U,-0.939
22,U55C A111U,-4.15
23,U54G G60A U87A A95G G110C,-6.6
24,U55A C85A C115G,-3.37

row,Variant,polymerase ribozyme fitness (log ratio)
1,U54A G71U U87G C123A,-0.353
2,U55A G61U C85A C94A,-0.999
3,U54G C82A G120U,-0.425
4,U54G C62A A95C A121G,-6.12
5,U54C G110A,-1.29
6,U54C G122A,-0.596
7,U54A C102U,-2.1
8,U54C G120A,-0.357
9,U54A C86U C97U C101G,-2
10,U54C G61U U116A U131C,-2.5
11,U54A U96A G113C C123U U126A,-4.27
12,U54C G71U C97G C123U,-4.02
13,U54G C124U,1.5
14,U54G G61A C86G,-5.3
15,U54A G69A U78G C82G A121U U130A,-1.06
16,U54G G71U A75C C98U U125C,-4.29
17,U54A C72G C104U G113A,-3.29
18,U54C A84G U116G,-2.35
19,U54G C64U,-3.4
20,U54G C56G A83C G120U,-1.88
21,U54G U55G G60C C85U,-6.29
22,U54A U87G C123A,0.724
23,U54A C73A C88A,-0.61
24,U54C C64U G77U G113C U132A G135U,-3.36

row,Variant,polymerase ribozyme fitness (log ratio)
1,U54G G122A G128C,-2.84
2,U54C G77U,-0.352
3,U54G U87C,-0.0304
4,U54G U87A,-0.0841
5,U54G C89A U106A,-2.52
6,U54C U59C A119G,1.11
7,U55C G61U G113A,-1.64
8,U54A G120A,0.0705
9,U55A C73U,0.172
10,U55A G63A C73A,-1.05
11,U54G,-0.214
12,U54C,0.321
13,U55C C70U,-0.302
14,U54C C56G U131G,-1.34
15,U55C G57A G69U C89U G110U U129A,-3.64
16,U54A G61A U106A C124U U129G,-0.685
17,U54G G69U A121C U126A,-0.813
18,U54A G63A C73G,-6.66
19,U54G C85A,-1.99
20,U54A C86U,0.24
21,U54C G77C C104U,-0.638
22,U54G A108U,-5.9
23,U54G G63C C86G C114A U133C,-3.86
24,U54A C73A U78C C102A,-1.97

row,Variant,polymerase ribozyme fitness (log ratio)
1,U54G C115U,-0.94
2,U54A U59A C80A C82G C123U,-2.88
3,U54A C70U C73A C124U U129G,-0.505
4,U55C A90G C94G G110C U116A A121G,-5.82
5,U54C U133A,-0.0319
6,U54C U96A,-0.835
7,U55C G57U U59A C89U,-2.23
8,U54G U59C U130A,-1.81
9,U54G G57A C72G C114U,-5.48
10,U54A U59A G60C U106A C124A G128U,-0.601
11,U54A C102G U112G,-6.74
12,U55C A83C U116C,-2.32
13,U54G A105G U112A C123G C124A U132C,-2.09
14,U54C G57C C72G U112C,0.604
15,U54A U112A G117C,-3.84
16,U54G C72U U129C,-0.965
17,U55A C85G C86G U112G G128A,-2.76
18,U55C C79A,-2.08
19,U54C G69A U112C,-0.483
20,U54G G63C C70U,-1.73
21,U55C A66G A90U,-4.46
22,U54C A75G C79A,-0.763
23,U54A G58C C64U G110C,-5.03
